Results from the supplement of paper PMC12042874.
± gives the uncertainty stated by the source.

assay: amyloid nucleation score (Sup35N fusion, yeast selection) (log enrichment); library NNK1; higher = more nucleation; inactive = no reads after selection
Outline: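 The nucleation score is the DiMSum log enrichment of output over input reads, centred on the mode score of non-aggregating sequences. Only sequences with 100 or more input reads were scored, using Illumina sequencing of input and output plasmid inserts. Psi-negative yeast expressing Sup35N fused to peptides of 20 random codons were induced 24 hours with 100 μM copper sulfate and grown 7 days at 30°C on medium lacking adenine and uracil.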

Row | Substance | amyloid nucleation score
1 | NLFTDVIHYMVAFLLVYYII | 0.682 ± 0.49
2 | FFVGLPYTNSYHIPHVF | inactive
3 | SGSALYLCAISLRVSTEEKP | -0.178 ± 0.85
4 | CRASFACERDNIS | 0.547 ± 0.31
5 | YSYSEGSLYQCSVSVV | 0.601 ± 0.7
6 | INWRN | -0.471 ± 0.34
7 | GTFSDAFVLLIFCLYGINYL | 1.54 ± 0.53
8 | HIGIWTIPSRKEGR | inactive
9 | QVSTNLVWDL | 0.614 ± 1.2
10 | GSTNERYAKNGTS | 0.32 ± 0.68
11 | SRNNCSNRRDYHGIYSMRIS | 0.513 ± 0.79
12 | KGLEPLCLRSFFLWRERFRD | -0.686 ± 0.49
13 | VALWGQYGTSIGAIGAVFSH | -0.03 ± 0.54
14 | CETVG | inactive
15 | GRLTLSRGRCCQGSLNTVYP | 0.007 ± 0.75
16 | HLVKHVLCSKCTFDVLIIIY | 1.08 ± 0.21
17 | LFVSNMC | -1.47 ± 0.91
18 | FDAAIVLCSDVSIKGCLSRN | 1.27 ± 0.27
19 | TVLNDYWFSTHKLSIR | 0.958 ± 0.48
20 | RSFTVCEFMFLFRLWDNSAY | 0.11 ± 0.9
21 | RLCPENLRTNFKCVLNFMVT | 4.81 ± 0.12
22 | LSEKYTIPVLFHVLKIITGI | 0.495 ± 0.45
23 | YIYEDFGG | -0.407 ± 0.57
24 | ARHKSENWNYAVDLLSLILS | 1.59 ± 0.41
25 | PHYRTSFVKHPLL | 0.73 ± 0.54

Row | Substance | amyloid nucleation score
26 | MVVYFNLPAVMLIDCMMSAI | 0.708 ± 0.62
27 | TAQMKDFSLRRNVGFVGSRW | inactive
28 | MYIFVDIFAAQLVTRWKGFE | -0.97 ± 1.9
29 | EPTDYWRVY | inactive
30 | LCELNSKAVYGSKMAHCYSS | -0.151 ± 0.33
31 | ICFFGLDVNFTRLSTVTRFT | 2.66 ± 0.16
32 | RAIMRKIYYHVMMIWI | 0.153 ± 0.41
33 | FRLDNLRCTWVFRYPIGESS | 1.17 ± 0.73
34 | LNRLSFLV | 0.065 ± 1.2
35 | GNGHWQQVG | 0.001 ± 0.33
36 | HGLLHQVSVMPGIPSMAFNI | -0.016 ± 0.68
37 | IRPNMRAVKIEVQDVGSQCV | 0.428 ± 0.6
38 | NNCANIGRIEFMPGHYDMCV | 1.11 ± 0.36
39 | VNYSNWFSMADSFRSRSFSV | -0.104 ± 1.1
40 | SLHCLMFVCSFRVSFEDWGE | 4.77 ± 0.13
41 | IGYLDMGNRFGYLLARC | -1.1 ± 0.62
42 | PKMAPRNINVGRS | 0.26 ± 0.54
43 | LKIKGGWVFVTSIW | -0.008 ± 0.35
44 | SYVVETQFSSHFSVLWDLMF | -1.49 ± 1.2
45 | VLRHS | -0.779 ± 1
46 | TVGSIRRNHEVLWGTRILSG | -1.69 ± 2.7
47 | TILMASTSYFIPSLP | 1.38 ± 0.21
48 | SVLKSITPNGPLLFSYVCSI | -1.56 ± 0.58
49 | YASSYNKRCNNVMNVVW | -0.299 ± 0.25
50 | QGGTVCLEF | -0.578 ± 0.34

Row | Substance | amyloid nucleation score
51 | LVFTCVGCWYQGKLWNE | 4.25 ± 0.12
52 | GRVFSFMIGFFVALTERTRA | -0.037 ± 1.7
53 | GRDRSWDIRWLYTLTEPTWH | -1.62 ± 2.7
54 | IATNRGMCLGLRVSGLDMAR | 1.13 ± 0.49
55 | LRSKFRCLSILVRMVIIDCF | 0.457 ± 0.62
56 | GYNSVYHLSNVALR | 0.928 ± 0.32
57 | NWAKGNCYVAFRLKWRYNCG | 0.745 ± 0.74
58 | ATVDGRLIRDVSISCMGYDV | -1.12 ± 2.4
59 | DWLMMDLL | 0.103 ± 1.1
60 | IFKGGFTWYCCDKARGLKGR | 0.411 ± 0.34
61 | HMVFQVKFWTNHRQVFSLPY | 2.91 ± 0.14
62 | HNKVATMW | 1.46 ± 0.25
63 | SMDLLRDLSVDKWAFF | 0.133 ± 0.33
64 | SNMTSRYYNCMVTWVRILVR | 1.19 ± 0.41
65 | ISRVIFLR | 1.41 ± 0.78
66 | VLVLNLSLPKSLSNPSMRFG | 8.028 ± 0.046
67 | SLPSNHTVLWTVWMMVFGAR | -1.09 ± 0.96
68 | VHWIWGF | 0.228 ± 0.5
69 | AGGVKSCTKRFN | -0.232 ± 1.5
70 | RSFEGKRFNVGWLFASATFM | 0.157 ± 0.46
71 | GLYLDFGYSGCYGKKL | 5.67 ± 0.082
72 | HNLRVIFCY | 0.421 ± 0.58
73 | WSHSILCIQSRSRIYPTHWL | 0.495 ± 0.29
74 | KVALESSRAV | 0.036 ± 0.88
75 | HMWSESQIVGRLYVYRNIVV | 0.747 ± 0.81

Row | Substance | amyloid nucleation score
76 | INDCYFMWGNLFCYVCVMLL | 1.66 ± 0.46
77 | DSASL | 0.514 ± 0.79
78 | CEAMVLKGCAEAVQYRATDS | -0.23 ± 1.1
79 | LWVVRI | 0.67 ± 0.85
80 | FRNGDGVQPWLTWHAV | 1.28 ± 0.33
81 | PNIKLSDRLGIIRREIWMVV | 0.54 ± 0.39
82 | AENITGWVVPIVVTLTASAR | -0.163 ± 0.29
83 | FLNNTGAQSKLFLDVSVRQG | -0.065 ± 0.86
84 | SLFQYWDVRDVESTFSVCNC | 6.339 ± 0.047
85 | LILRLVHKLGLCVPLSGSRG | -0.827 ± 1.7
86 | LQKFMLV | 0.638 ± 0.53
87 | NCHREFIHWVILNSGSSAHM | 1.94 ± 0.57
88 | TYIPDIYG | 1.1 ± 0.74
89 | GEHSLSIICCVLCTVGDGPN | 7.611 ± 0.058
90 | LICAAAKLIHGWGNKWIYVT | -0.368 ± 1.7
91 | STKQFFRLAFRGPWKTGHKP | 0.273 ± 0.96
92 | ASSIDYQRTS | 0.322 ± 0.71
93 | DHWSASIVIPVWSERNNSFG | -0.373 ± 1.4
94 | VVHHEDYMRLGC | -0.948 ± 1.4
95 | LNGNLVTMEGVLINNSFRVT | 0.394 ± 0.24
96 | NLVFSMPAVWALVYVFTLFI | 1.51 ± 0.37
97 | LTYATDSFNRNFHILMHHVP | -0.711 ± 0.74
98 | LYPSISGFFCCKWGSVVNGL | inactive
99 | FHHMVLE | -0.783 ± 0.54
100 | QMTVGQYSCL | 0.45 ± 1.1

Row | Substance | amyloid nucleation score
101 | NTGWDRGHGCSLMFHRVLEW | 2.67 ± 0.13
102 | LGATGIGVYTVGHTFKS | -0.382 ± 0.44
103 | FNPLRVNYGLWDRSAR | 0.248 ± 0.83
104 | MSYSMVNGDSTF | 2.33 ± 0.35
105 | LWVYSMWVQLTAGFNTVDVM | -0.707 ± 0.95
106 | NMWGVGDVTGIF | 1.62 ± 0.59
107 | LFLGLPELVQNSLDMLVSLW | 0.217 ± 0.31
108 | KVPYLVDYISLVFFVFKVLF | -0.388 ± 0.34
109 | LRSNHWNHTCLHNIRGCS | 3.42 ± 0.071
110 | MMGWV | -0.619 ± 0.48
111 | IISTWSYGSES | 2.43 ± 0.14
112 | HDIAIMSSVGFSTAHDICSE | 0.26 ± 0.99
113 | WGSASRLKVTLRRVRYTTTG | 0.813 ± 0.71
114 | GRVFAVSYFVRAGLVNEG | 0.082 ± 0.7
115 | SSSFGHYDTWLYSSLFQGLT | 3.46 ± 0.14
116 | FVGMSRFFKVH | -0.629 ± 0.39
117 | LILLLFEGFLLP | 0.246 ± 0.63
118 | IFSPVSCDMVTDGMGTSCWY | 0.144 ± 0.9
119 | DSFARYVGVLKRLARLSTYR | 0.568 ± 0.72
120 | QKGLDVVWYDTRSDMYNKIL | -0.569 ± 0.7
121 | FSEVTLFFPKDAILEFSARC | -0.353 ± 0.79
122 | DWNYKFMGRRLEHMCQVLM | -1.03 ± 1.1
123 | LFRGFWSERSTVSMLFRSRR | -0.124 ± 0.83
124 | PLRDGA | -0.856 ± 2.4
125 | SSEVRMTVVSLGPLMDRPNV | -0.243 ± 0.68

Row | Substance | amyloid nucleation score
126 | MLLSFLYLV | 5.26 ± 0.049
127 | RLGHDRIFSIRNSQS | -0.287 ± 0.58
128 | VRQSGLCIKWEVTRRAKRSV | 0.699 ± 0.85
129 | SSERGTWIMVARVQSVTNNV | inactive
130 | ESLREVTLYATKSLWMNLRL | -1.83 ± 1.1
131 | GWQDSLYLYYFTKFCRNQGG | -0.559 ± 0.46
132 | HIVNCVKML | 0.788 ± 0.63
133 | GRSCFGEHILNTPAISCNIT | -0.288 ± 0.35
134 | RGCVGRSFSDEES | -1.22 ± 1.5
135 | LDLNRFDPWVVTSLLCFPVA | -1.42 ± 1.5
136 | SHEFLSSVYQSVLIVSNF | -0.508 ± 0.58
137 | VTFWHVFLIFSYLSTCAWWW | -0.382 ± 1.2
138 | YYSWQEDGFPFTNVSMFWS | -0.076 ± 0.37
139 | LQIYCAPGFV | 0.38 ± 1.2
140 | SYFWYCGPSDDYNKPSCSMW | -0.441 ± 0.8
141 | EANCLFEWSMMLRYSARDGT | 0.312 ± 1.4
142 | RFRFNWLNSQNLQRFVGTFK | 0.433 ± 0.3
143 | NIVFMCMCGLDI | 0.895 ± 0.29
144 | TSFWLSVKSTNPFNRRQFSD | 0.436 ± 0.35
145 | LMSLEHELRVKS | inactive
146 | CIGRCMWI | 1.81 ± 0.61
147 | RSSMPRSWAVWPRWE | 0.176 ± 0.71
148 | VCYRGECVDSDLLYLSCP | -0.389 ± 1
149 | NIFVGLLTWLCVKLCMGMFV | -0.633 ± 0.94
150 | DNTSCLW | inactive

Row | Substance | amyloid nucleation score
151 | NTCEGGKCSYKVVSFLYLKY | 0.497 ± 0.5
152 | ACEELVQIVVYCDSFMFSPS | 1.46 ± 0.52
153 | YMVLS | 0.9 ± 0.85
154 | SGLLS | -1.12 ± 0.65
155 | SLGVSDI | -1.16 ± 0.41
156 | AIIERADLSGMPLFSGFPGD | -0.148 ± 0.8
157 | MDSCCIMTMIKHELGLPYQP | 3.77 ± 0.1
158 | YLTSANTSFTFESWWCL | 2.93 ± 0.22
159 | TVRCG | 0.014 ± 0.97
160 | RLFYTRSDSGGVRLVVLAVG | 0.003 ± 1.2
161 | ASLSPNTASYNLELPSIMHM | 0.283 ± 0.71
162 | GFALECESEVWSCYYTIRII | 0.444 ± 0.43
163 | SSYNLKYLWGCIC | 7.263 ± 0.048
164 | GHSRSSGLLKKFCVKSRQDA | 0.234 ± 0.66
165 | IAIFMYCM | 7.467 ± 0.055
166 | LVHRRFMESDISGLCCALLW | -0.224 ± 1.4
167 | IEDFEKGISVRVVTLWSWVV | -0.93 ± 0.39
168 | LFIFFKV | 0.049 ± 0.51
169 | LGCYTLESLGEYDNSNNWLL | 0.932 ± 0.69
170 | AWVRLYWAGR | 0.216 ± 0.68
171 | DSRCHSSSGDRPTLAVYT | -0.198 ± 1.7
172 | NFSESFLTVNPQTTDVLKLH | -1.18 ± 1.5
173 | RGDLF | 3.04 ± 0.07
174 | CYGFLVSMMSYLSLVELVFL | -0.04 ± 0.26
